The values that follow come from patent US20120128704A1 (published 2012).

Sequences and labels used below:
T1: survivin peptide on HLA-A*02:01 (human)
T1 peptide: LMLGEFLKL

B1: SW-Surv-72 (TCR, V domains shown)
Valpha: AQKITQTQPGMFVQEKEAVTLDCTYDTSDQSYGLFWYKQPSSGEMIFLIYQGSYDEQNATEGRYSLNFQKARKSANLVISASQLGDSAMYFCAMREGGGYNKLIFGAGTRLAVHP
Vbeta: SQTIHQWPATLVQPVGSPLSLECTVEGTSNPNLYWYRQAAGRGLQLLFYSVGIGQISSEVPQNLSASRPQDRQFILSSKKLLLSDSGFYLCAGQDLNTEAFFGQGTRLTVV
B2: SW-Surv-66 (TCR, V domains shown)
Valpha: GENVEQHPSTLSVQEGDSAVIKCTYSDSASNYFPWYKQELGKRPQLIIDIRSNVGEKKDQRIAVTLNKTAKHFSLHITETQPEDSAVYFCAARAGNMLTFGGGTRLMVKP
Vbeta: SQTIHQWPATLVQPVGSPLSLECTVEGTSNPNLYWYRQAAGRGLQLLFYSVGIGQISSEVPQNLSASRPQDRQFILSSKKLLLSDSGFYLCAWGTGLALYEQYFGPGTRLTVT
B3: SW-Surv-22 (TCR, V domains shown)
Valpha: EDQVTQSPEALRLQEGESSSLNCSYTVSGLRGLFWYRQDPGKGPEFLFTLYSAGEEKEKERLKATLTKKESFLHITAPKPEDSATYLCAVQAYSNSGYALNFGKGTSLLVTP
Vbeta: SAVISQKPSRDICQRGTSLTIQCQVDSQVTMMFWYRQQPGQSLTLIATANQGSEATYESGFVIDKFPISRPNLTFSTLTVSNMSPEDSSIYLCSVEDSYGYTFGSGTRLTVV

The target of the assay is T1, survivin peptide on HLA-A*02:01. Description: multimer staining.
Experimental: Up to 1×10⁶ of cells were incubated in 50 μl volume for 25 min with 4 μg PE-labeled multimer on ice in the dark. For sorting, up to 5×10⁶ cells were incubated with 12 μg multimer in 100 μl PBS+0.5% human serum. CD8-APC antibody was then added at 1/50 for an additional 25 min. After staining cells were washed twice and either fixed in FACS buffer with 1% paraformaldehyde and analysed by flow cytometry using a FACSCalibur (BD Biosciences) or diluted in PBS+0.5% human serum with PI for sorting. 20-50×10⁶ total cells per priming culture were stained for sorting. PI-negative cells were gated and CD8⁺multimer⁺ T cells were sorted on a FACSAria cell sorter (BD Biosciences) with a 70 μm nozzle, at a rate of 15,000 events/s. […] Pentamer staining was performed according to the manufacturer's instructions.
For B1, the binding result was “recognises”.
The same measure for B2: “recognises”; for B3: “recognises”.
